Results as given in patent US20030232742A1, “FAP-activated anti-tumor compounds” (priority 2000, published 2003).
*1 amine or outer side, *2 acyl side, *3 side chain or, on linkers, in order; H or OH if unused. Where no end group is shown, it is not given here. [ ]: non-standard residue; d: D form. The star is where a group is joined. morpholino‑(ethyloxycarbonyl) = morpholino-(ethyloxycarbonyl) N-terminal blocking group, O=C(OCCN1CCOCC1)*; NH(4-MeO-2-naphthyl) = COc1cc(N*)cc2ccccc12; Glutaryl = O=C(CCCC(=O)[*:2])[*:1]; Suc = O=C(CCC(=O)[*:2])[*:1]; 4Amb = NCc1ccc(C(=O)O)cc1; NMeA = CN[C@@H](C)C(=O)O

Target: T1, FAP (Homo sapiens, UniProt Q12884)
T1 construct: Cell extract from 293 cells stably transfected with FAP prepared as described; expressed in transfected cells; detergent extract used
T1 sequence (Q12884 1-760): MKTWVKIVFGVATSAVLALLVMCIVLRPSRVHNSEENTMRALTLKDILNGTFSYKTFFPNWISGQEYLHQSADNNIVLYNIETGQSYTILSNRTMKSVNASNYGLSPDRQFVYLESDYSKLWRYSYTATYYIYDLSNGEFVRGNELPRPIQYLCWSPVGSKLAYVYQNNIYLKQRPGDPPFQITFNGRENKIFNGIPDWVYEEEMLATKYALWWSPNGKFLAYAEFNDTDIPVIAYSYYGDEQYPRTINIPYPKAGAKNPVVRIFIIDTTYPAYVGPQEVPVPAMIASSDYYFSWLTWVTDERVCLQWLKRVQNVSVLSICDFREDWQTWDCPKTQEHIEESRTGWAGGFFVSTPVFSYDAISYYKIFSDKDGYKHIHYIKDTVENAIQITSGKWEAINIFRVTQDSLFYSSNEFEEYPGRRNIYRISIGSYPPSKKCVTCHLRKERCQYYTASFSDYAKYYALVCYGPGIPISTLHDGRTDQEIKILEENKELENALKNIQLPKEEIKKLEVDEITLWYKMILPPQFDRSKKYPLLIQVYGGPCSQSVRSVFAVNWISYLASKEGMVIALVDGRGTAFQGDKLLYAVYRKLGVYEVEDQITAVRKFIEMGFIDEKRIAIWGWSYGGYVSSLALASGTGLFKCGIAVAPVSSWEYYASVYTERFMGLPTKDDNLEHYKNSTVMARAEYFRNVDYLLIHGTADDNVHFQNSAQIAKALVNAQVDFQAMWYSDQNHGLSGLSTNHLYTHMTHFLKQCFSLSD
Assay: Assay for cleavage of MNA substrates by FAP
Format: biochemical
Conditions: 1 ng FAP enzyme in 293 cell extract, 20 μl 2.5 mM substrate (a few diluted further), room temperature 1 hour, control 293 extract subtracted
Source text: To identify preferred FAPα peptide substrates, blocked oligopeptides composed of natural amino carboxylic acids were synthesized and coupled to Proline-4-methoxy-β-napthylamine (Pro-MNA) using methods known to the art (E. Wünsch, Synthese von Peptiden, in Methoden der organischen Chemie, Houben-Weyl (Eds. E. Müller, 0. Bayer), Vol. XV, Part 1 and 2, Georg Thieme Verlag, Stuttgart, 1974). The turnover and cleavage rate have been determined with the aid pf the following assay:
Assay for Cleavage of MNA Substrates by FAP:
Cell extract from 293 cells stably transfected with FAP prepared as described (see Park, et al., Fibroblast Activation Protein, a Dual Specificity Serine Protease expressed in human tumor stromal fibroblasts. (1999) J. Biol. Chem. 36505-12.). A similar extract was also prepared from parental 293 control cells without FAP. The FAP concentration in the FAP-transfected cell extract was estimated by immunoassay and 1 ng enzyme (diluted in buffer A) was used per assay. FAP-negative 293 control cell extract was used at the same dilution (also in buffer A) as a negative control. Substrate was initially dissolved in dimethylformamide at a concentration of 200 mM and diluted in buffer A to a final concentration of 2.5 mM. A few substrates were not soluble at this concentration and had to be diluted further.
10 μl 10% DMSO in buffer A
70 μl diluted FAP cell extract containing 1 ng FAP enzyme (OR control 293 cell extract without FAP)
Mix, incubate at room temperature for 1 hour, and measure fluorescence in Fluorostar fluorimeter at the following wavelengths:
MNA conjugates: Excitation: 355 nm, Emission: 405 nm.
The fluorescence measured in the samples treated with control 293 control cell extracts without FAP is subtracted from the values measured in the samples treated with 1 ng FAP enzyme.

Substance | % Turnover | Cleavage
1-Methylpyrrol-2-ylcarbonyl Pro-Ala-Gly-Pro-MNA ({1‑methylpyrrol‑2‑ylcarbonyl}-PAGP-{NH(4-MeO-2-naphthyl)}) | 0.13% | 0.33 µM
2-Morpholino-ethyl-Pro-Ala-Gly-Pro-MNA ({2‑morpholino‑ethyl}-PAGP-{NH(4-MeO-2-naphthyl)}) | 0.26% | 0.64 µM
3 -Pyridylmethyloxycarbonyl-Gly-Pro-MNA | 0.72% | 3.58 µM
3-Fluorphenylacetyl-Gly-Pro-MNA | 0.35% | 1.77 µM
3-Pyridylacetyl-Gly-Pro-MNA | 1.82% | 9.12 µM
4-(2-Aminothiazol-5-yl)-acetyl-Pro-Ala-Gly-Pro-MNA ({(2-aminothiazol-5-yl)‑acetyl}-PAGP-{NH(4-MeO-2-naphthyl)}) | 0.39% | 1.94 µM
4-Aminomethylbenzoyl-Pro-Ala-Gly-Pro-MNA ([4Amb]PAGP-{NH(4-MeO-2-naphthyl)}) | 0.24% | 1.21 µM
4-Hydroxyphenylacetyl-Pro-Ala-Gly-Pro-MNA ({4‑hydroxyphenylacetyl}-PAGP-{NH(4-MeO-2-naphthyl)}) | 0.69% | 1.72 µM
Malonyl-Pro-Ala-Gly-Pro-MNA (malonyl-PAGP-{NH(4-MeO-2-naphthyl)}) | 0.21% | 1.05 µM
Pyrid-3-ylmethyloxycarbonyl-MeAla-Ala-Gly-Pro-MNA ({pyrid‑3‑ylmethyloxycarbonyl}-[NMeA]AGP-{NH(4-MeO-2-naphthyl)}) [MeAla represents a N-methylalanin moiety] | 1.27% | 6.31 µM
Pyrid-3-ylmethyloxycarbonyl-Pip-Ala-Gly-Pro-MNA | 0.56% | 2.78 µM
Pyrid-4-ylmethyloxycarbonyl-Pip-Ala-Gly-Pro-MNA | 0.43% | 2.16 µM
Succinyl-Pro-Ala-Gly-Pro-MNA (Suc-PAGP-{NH(4-MeO-2-naphthyl)}; SMILES COc1cc(NC(=O)[C@@H]2CCCN2C(=O)CNC(=O)[C@H](C)NC(=O)[C@@H]2CCCN2C(=O)CCC(=O)O)cc2ccccc12) | 0.29% | 1.44 µM

Further lines, results first:

% Turnover | Cleavage | Substance
0.26% | 1.28 µM | 2-Fluorphenylacetyl-Gly-Pro-MNA
2.26% | 2.26 µM | 3,5-Difluorphenylacetyl-Gly-Pro-MNA
0.58% | 2.88 µM | 3-Carboxyphenylsulfonyl-Pro-Ala-Gly-Pro-MNA ({3‑carboxyphenylsulfonyl}-PAGP-{NH(4-MeO-2-naphthyl)})
0.6% | 3 µM | 4-Amino-Phenylacetyl-Gly-Pro-MNA
0.26% | 1.28 µM | 4-Aminomethylphenylacetyl-Pro-Ala-Gly-Pro-MNA ({4‑aminomethylphenylacetyl}-PAGP-{NH(4-MeO-2-naphthyl)})
0.37% | 1.85 µM | 4-Dimethylaminobenzoyl-Pro-Ala-Gly-Pro-MNA ({4‑dimethylaminobenzoyl}-PAGP-{NH(4-MeO-2-naphthyl)})
0.42% | 2.08 µM | 4-Fluorphenylacetyl-Gly-Pro-MNA
1.18% | 5.92 µM | 4-Pyridylmethyloxycarbonyl-Gly-Pro-MNA
1.28% | 6.38 µM | 4-Pyridylmethyloxycarbonyl-Pro-Ala-Gly-Pro-MNA ({4‑pyridylmethyloxycarbonyl}-PAGP-{NH(4-MeO-2-naphthyl)})
0.3% | 1.48 µM | Glutaryl-Pro-Ala-Gly-Pro-MNA (Glutaryl-PAGP-{NH(4-MeO-2-naphthyl)}; SMILES COc1cc(NC(=O)[C@@H]2CCCN2C(=O)CNC(=O)[C@H](C)NC(=O)[C@@H]2CCCN2C(=O)CCCC(=O)O)cc2ccccc12)
0.65% | 3.25 µM | Morpholino-(ethyloxycarbonyl)-Pro-Ala-Gly-Pro-MNA ({morpholino‑(ethyloxycarbonyl)}-PAGP-{NH(4-MeO-2-naphthyl)}; SMILES COc1cc(NC(=O)[C@@H]2CCCN2C(=O)CNC(=O)[C@H](C)NC(=O)[C@@H]2CCCN2C(=O)OCCN2CCOCC2)cc2ccccc12)
0.6% | 2.99 µM | Morpholino-carbonyl-Pro-Ala-Gly-Pro-MNA ({morpholino‑carbonyl}-PAGP-{NH(4-MeO-2-naphthyl)})
0.56% | 0.7 µM | Prazin-2-ylcarbonyl-Pro-Ala-Gly-Pro-MNA ({pyrazin‑2‑ylcarbonyl}-PAGP-{NH(4-MeO-2-naphthyl)})
3.42% | 17.1 µM | Pyrid-3-ylmethyloxycarbonyl-2-Aze-Ala-Gly-Pro-MNA
1.61% | 8.07 µM | Pyrid-4-ylmethyloxycarbonyl-2-Aze-Ala-Gly-Pro-MNA
1.77% | 8.86 µM | Pyridin-3-ylmethoxycarbonyl-Pro-Ala-Gly-Pro-MNA ({pyridin‑3‑ylmethoxycarbonyl}-PAGP-{NH(4-MeO-2-naphthyl)})

Target: T2, FAPα dimers (Homo sapiens, UniProt Q12884)
T2 sequence (Q12884 1-760): T1 sequence (Q12884 1-760)
Assay: not given
Conditions: membrane overlay assay, WO 97/34927; cited from earlier work

Substance | cleavage of dipeptide coumarin substrate
Ala-Pro-7-amino-4-trifluoromethyl coumarin | able to cleave
Gly-Pro-7-amino-4-trifluoromethyl coumarin | able to cleave
Lys-Pro-7-amino-4-trifluoromethyl coumarin | able to cleave
